In US7674604:

Tests used:
[1] = target: LFA-1 mutant K287C/K294C (αL K287C/K294C with β2) on 293T or K562 transfectants (human) (UniProt P05107); assay: flow cytometry, 293T, normalized to TS2/4
[2] = target: LFA-1 mutant L289C/K294C (αL L289C/K294C with β2) on 293T or K562 transfectants (human) (UniProt P05107); assay: flow cytometry, 293T, normalized to TS2/4
[3] = target: LFA-1 mutant K287C/K294C (αL K287C/K294C with β2) on 293T or K562 transfectants (human) (UniProt P05107); assay: flow cytometry, K562, normalized to TS2/4
[4] = target: LFA-1 mutant L289C/K294C (αL L289C/K294C with β2) on 293T or K562 transfectants (human) (UniProt P05107); assay: flow cytometry, K562, normalized to TS2/4
[5] = target: LFA-1 single cysteine substitution mutant K287C on 293T transfectants (human) (UniProt P05107); assay: flow cytometry, 293T, normalized to TS2/4
[6] = target: LFA-1 single cysteine substitution mutant K294C on 293T transfectants (human) (UniProt P05107); assay: flow cytometry, 293T, normalized to TS2/4
[7] = target: LFA-1 single cysteine substitution mutant L289C on 293T transfectants (human) (UniProt P05107); assay: flow cytometry, 293T, normalized to TS2/4
[8] = target: LFA-1 mutant K287C/K294C (αL K287C/K294C with β2) on 293T or K562 transfectants (human) (UniProt P05107); assay: flow cytometry, K562, normalized to TS1/22
[9] = target: wild-type Mac-1 (αMβ2) on 293T or K562 transfectants (human) (UniProt P05107); assay: flow cytometry on K562 stable transfectants with intact Mac-1, row 'Wild-type'
[10] = target: Mac-1 mutant D294C/Q311C (with β2) on K562 transfectants (human) (UniProt P05107); assay: flow cytometry on K562 stable transfectants with intact Mac-1, row 'D294C/Q311C'
[11] = target: Mac-1 mutant Q163C/Q309C (αM Q163C/Q309C with β2) on 293T or K562 transfectants (human) (UniProt P05107); assay: flow cytometry on K562 stable transfectants with intact Mac-1, row printed 'Q163/Q309C'
[12] = target: wild-type LFA-1 (αL/β2 complex) expressed on 293T or K562 transfectants (human) (UniProt P05107); assay: flow cytometry on K562 transfectants, panel 'intact LFA-1'
[13] = target: isolated wild-type αL I-domain (V130-A338) expressed on K562 cells by the PDGF receptor transmembrane domain (human); assay: flow cytometry on K562 transfectants, panel 'WT I-domain (#1)'
isolated wild-type αL I-domain (V130-A338) expressed on K562 cells by the PDGF receptor transmembrane domain (human), sequence (P09619 other isoform, or with tags, fused parts or gaps): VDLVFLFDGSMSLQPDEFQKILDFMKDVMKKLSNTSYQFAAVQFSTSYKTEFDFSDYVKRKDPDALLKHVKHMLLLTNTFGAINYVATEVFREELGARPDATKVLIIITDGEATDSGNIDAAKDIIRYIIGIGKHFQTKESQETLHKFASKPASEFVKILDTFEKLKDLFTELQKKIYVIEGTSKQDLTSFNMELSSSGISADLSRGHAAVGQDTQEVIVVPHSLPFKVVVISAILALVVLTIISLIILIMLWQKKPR

[14] = target: isolated K287C/K294C αL I-domain (V130-A338) expressed on K562 cells by the PDGF receptor transmembrane domain (human) (UniProt P20701); assay: flow cytometry on K562 transfectants, panel 'K287C/K294C I-domain (#1)'
isolated K287C/K294C αL I-domain (V130-A338) expressed on K562 cells by the PDGF receptor transmembrane domain (human), sequence (P20701 155-363 K312C/K319C limits assumed): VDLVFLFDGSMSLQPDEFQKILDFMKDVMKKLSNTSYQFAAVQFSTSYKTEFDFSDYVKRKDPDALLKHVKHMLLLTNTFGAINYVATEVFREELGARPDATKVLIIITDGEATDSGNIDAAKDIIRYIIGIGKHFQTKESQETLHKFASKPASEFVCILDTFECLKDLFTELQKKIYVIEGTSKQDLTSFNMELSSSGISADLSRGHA

[15] = target: isolated K287C/K294C αL I-domain (V130-A338) expressed on K562 cells by the PDGF receptor transmembrane domain (human) (UniProt P20701); assay: flow cytometry on K562 transfectants, panel 'K287C/K294C I-domain (#2)'
[16] = target: isolated L289C/K294C αL I-domain (V130-A338) expressed on K562 cells by the PDGF receptor transmembrane domain (human) (UniProt P20701); assay: flow cytometry on K562 transfectants, panel 'L289C/K294C I-domain (#1)'
isolated L289C/K294C αL I-domain (V130-A338) expressed on K562 cells by the PDGF receptor transmembrane domain (human), sequence (P20701 155-363 L314C/K319C limits assumed): as the sequence (P20701 155-363 K312C/K319C limits assumed) above, with C158K, L160C counted along it

[17] = target: isolated L289C/K294C αL I-domain (V130-A338) expressed on K562 cells by the PDGF receptor transmembrane domain (human) (UniProt P20701); assay: flow cytometry on K562 transfectants, panel 'L289C/K294C I-domain (#2)'
[18] = target: isolated wild-type αL I-domain (V130-A338) expressed on K562 cells by the PDGF receptor transmembrane domain (human); assay: flow cytometry on K562 transfectants, panel 'WT I-domain (#2)'; nothing is printed after the point
[19] = target: wild-type LFA-1 (αL/β2 complex) expressed on 293T or K562 transfectants (human) (UniProt P05107); assay: flow cytometry, K562 WT (#22), ICAM-1-IgA 100 µg/ml, FITC anti-human IgA, taken after paragraph 201 as ICAM-1-IgA without CBRLFA-1/2; left column of this row, taken as no ICAM-1-IgA: 3.58
[20] = target: wild-type LFA-1 (αL/β2 complex) expressed on 293T or K562 transfectants (human) (UniProt P05107); assay: flow cytometry, K562 WT (#22), ICAM-1-IgA 100 µg/ml, FITC anti-human IgA, taken after paragraph 201 as ICAM-1-IgA with CBRLFA-1/2 10 µg/ml; left column of this row, taken as no ICAM-1-IgA: 3.58
[21] = target: LFA-1 mutant K287C/K294C (αL K287C/K294C with β2) on 293T or K562 transfectants (human) (UniProt P05107); assay: flow cytometry, K562 K287C K294C (#7), ICAM-1-IgA 100 µg/ml, FITC anti-human IgA, taken after paragraph 201 as ICAM-1-IgA without CBRLFA-1/2; left column of this row, taken as no ICAM-1-IgA: 3.59
[22] = target: LFA-1 mutant L289C/K294C (αL L289C/K294C with β2) on 293T or K562 transfectants (human) (UniProt P05107); assay: flow cytometry, K562 L289C K294C (#6), ICAM-1-IgA 100 µg/ml, FITC anti-human IgA, taken after paragraph 201 as ICAM-1-IgA without CBRLFA-1/2; left column of this row, taken as no ICAM-1-IgA: 4.68
[23] = target: LFA-1 mutant K287C/K294C (αL K287C/K294C with β2) on 293T or K562 transfectants (human) (UniProt P05107); assay: flow cytometry, K562 K287C K294C (#7), ICAM-1-IgA 100 µg/ml, FITC anti-human IgA, taken after paragraph 201 as ICAM-1-IgA with CBRLFA-1/2 10 µg/ml; left column of this row, taken as no ICAM-1-IgA: 3.59
[24] = target: LFA-1 mutant L289C/K294C (αL L289C/K294C with β2) on 293T or K562 transfectants (human) (UniProt P05107); assay: flow cytometry, K562 L289C K294C (#6), ICAM-1-IgA 100 µg/ml, FITC anti-human IgA, taken after paragraph 201 as ICAM-1-IgA with CBRLFA-1/2 10 µg/ml; left column of this row, taken as no ICAM-1-IgA: 4.68

soluble ICAM-1-IgA chimera containing the 5 Ig domains of human ICAM-1, sequence (P05362 28-480, stated change not applied): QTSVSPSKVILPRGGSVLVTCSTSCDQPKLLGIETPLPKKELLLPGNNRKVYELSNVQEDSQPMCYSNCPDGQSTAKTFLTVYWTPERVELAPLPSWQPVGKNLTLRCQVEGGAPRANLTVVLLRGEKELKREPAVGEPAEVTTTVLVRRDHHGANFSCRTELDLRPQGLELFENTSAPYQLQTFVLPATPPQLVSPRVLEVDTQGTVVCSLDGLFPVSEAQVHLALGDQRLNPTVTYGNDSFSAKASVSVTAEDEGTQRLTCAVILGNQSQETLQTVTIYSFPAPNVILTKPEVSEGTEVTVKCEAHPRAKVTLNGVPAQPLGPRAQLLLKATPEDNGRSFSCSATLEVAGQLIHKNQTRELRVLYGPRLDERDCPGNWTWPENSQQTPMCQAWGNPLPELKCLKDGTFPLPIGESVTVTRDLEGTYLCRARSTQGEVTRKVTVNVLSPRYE

% wild-type binding (% of wild-type) [1]	% wild-type binding (% of wild-type) [2]	% wild-type binding (% of wild-type) [3]	% wild-type binding (% of wild-type) [4]	% wild-type binding (% of wild-type) [5]	% wild-type binding (% of wild-type) [6]	% wild-type binding (% of wild-type) [7]	Substance	also measured
95.3	91.7	95.2	97.2				anti-β2 (CD18) monoclonal antibody CBRLFA-1/7	
99.8	95.7	97.4	106	87.9	108	87.3	anti-β2 (CD18) monoclonal antibody TS1/18	
93.1	90.9	88.5	85.7				monoclonal antibody 25-3-1	
92.4	85.8	92.4	97.6	93.3	88.3	92.4	monoclonal antibody BL5	
							monoclonal antibody CBRLFA-1/9	% wild-type binding (% of wild-type) [8]: 84.7
							monoclonal antibody CBRM1/5	mean fluorescent intensity [9]: 25; mean fluorescent intensity [10]: 262; mean fluorescent intensity [11]: 208
							monoclonal antibody CBRM1/32	mean fluorescent intensity [9]: 120; mean fluorescent intensity [10]: 81; mean fluorescent intensity [11]: 115
		96.5	100				monoclonal antibody CLBLFA-1/1	
93.7	83.6	102	93.9	95.9	95.5	99.6	monoclonal antibody F8.8	
92.6	82.1	92.6	101	95.8	106	95.4	monoclonal antibody May.035	
89.4	95.3	97.4	85.7	98.3	92.3	86.4	monoclonal antibody S6F1	
94.4	93.7	96	105				mouse anti-human αL (CD11a) monoclonal antibody TS1/11	
88.7	102	87.3	106	99.3	93.7	104	mouse anti-human αL (CD11a) monoclonal antibody TS1/12	
95.8	91	93.1	110	103	92.2	96.2	mouse anti-human αL (CD11a) monoclonal antibody TS1/22	mean fluorescent intensity [12]: 104; mean fluorescent intensity [13]: 67.3; mean fluorescent intensity [14]: 66.3; mean fluorescent intensity [15]: 84.6; mean fluorescent intensity [16]: 71.1; mean fluorescent intensity [17]: 151; mean fluorescent intensity [18]: 205
84.9	78.6	89.2	95.9	91.4	91.7	88.2	mouse anti-human αL (CD11a) monoclonal antibody TS2/6	
85.5	83.3	95.4	103	103	103	100	mouse anti-human αL (CD11a) monoclonal antibody TS2/14	
							soluble ICAM-1-IgA chimera containing the 5 Ig domains of human ICAM-1 (from UniProt P05362 28-480) (Fc fusion)	mean fluorescent intensity [19]: 5.26; mean fluorescent intensity [20]: 4.89; mean fluorescent intensity [21]: 24.8; mean fluorescent intensity [22]: 5.36; mean fluorescent intensity [23]: 41.3; mean fluorescent intensity [24]: 4.32
